Residue numbers refer to the chain shown, from its start.

Holding throughout (assay): ITC
One data set deals with T1, mTet3-CXXC T80A (Mus musculus (mouse), UniProt Q8BG87 51-96, T80A).
T1 chain: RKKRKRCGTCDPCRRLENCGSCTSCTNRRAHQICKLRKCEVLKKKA

A further data set deals with T2, XtTet3-CXXC (Xenopus tropicalis, UniProt A0JP82 58-99).
T2 chain: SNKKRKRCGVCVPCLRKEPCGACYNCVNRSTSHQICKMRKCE

A further data set addresses T3, mTet3-CXXC H81A (Mus musculus (mouse), UniProt Q8BG87 51-96, H81A).
T3 chain: T1 chain with A30T, H31A

The next data set addresses T4, mTet3-CXXC Q82A (Mus musculus (mouse), UniProt Q8BG87 51-96, Q82A).
T4 chain: T1 chain with A30T, Q32A

Another data set concerns the target T5, mTet3-CXXC (Mus musculus (mouse), UniProt Q8BG87 51-96).
T5 chain: T1 chain with A30T

The target in the next data set is T6, mTet3-CXXC K88A (Mus musculus (mouse), UniProt Q8BG87 51-96, K88A).
T6 chain: T1 chain with A30T, K38A

B1: CcaCG DNA (dsDNA)
DNA 1: GAATCCGGATTC
DNA 2: GAATCCGGATTC
modifications: 5-carboxyl-dC at position 6 of both strands
Regarding B1, the Kd with mTet3-CXXC T80A is 910 nM; with XtTet3-CXXC, 1300 nM; in the data set with mTet3-CXXC Q82A, 970 nM; in the data set with mTet3-CXXC, 560 nM. Also, in the data set with mTet3-CXXC H81A, the binding result was “no binding”.

B2: CCG DNA (dsDNA)
DNA 1: GAATCCGGATTC
DNA 2: GAATCCGGATTC
For B2, the Kd with mTet3-CXXC K88A is 5320 nM; with mTet3-CXXC T80A, 1790 nM; in the data set with XtTet3-CXXC, 2580 nM; with mTet3-CXXC Q82A, 2380 nM; with mTet3-CXXC it was 1880 nM. Besides, in the data set with mTet3-CXXC H81A, the binding result is “no binding”.

B3: hemi-CcaCG DNA (dsDNA)
DNA 1: GAATCCGGATTC
DNA 2: GAATCCGGATTC
modifications: 5-carboxyl-dC at position 6 of one strand only
For B3, the Kd in the data set with mTet3-CXXC amounted to 1570 nM.

B4: ChmCG DNA (dsDNA)
DNA 1: GAATCCGGATTC
DNA 2: GAATCCGGATTC
modifications: 5-hydroxymethyl-dC at position 6 of both strands
Consider B4, for which the Kd in the data set with XtTet3-CXXC worked out at 18600 nM.

B5: CfCG DNA (dsDNA)
DNA 1: GAATCCGGATTC
DNA 2: GAATCCGGATTC
modifications: 5-formyl-dC at position 6 of both strands
As to B5, the Kd with XtTet3-CXXC was 10400 nM; with mTet3-CXXC, 6130 nM.

B6: CmCG DNA (dsDNA)
DNA 1: GAATCCGGATTC
DNA 2: GAATCCGGATTC
modifications: 5-methyl-dC at position 6 of both strands
For B6, the Kd was found to be 9000 nM with XtTet3-CXXC and 5590 nM with mTet3-CXXC.

For the origin of these results see PMC4731272.
